Assay results published in patent US11898183B2, “Programmed microorganisms to attenuate a disease” (priority 2020, dated 2024).

System: pathway specific substrates
Assay: Enzyme functionality of pathway enzyme homologs and fusion constructs in lysed E. coli cell extracts, product by HPLC
Type: biochemical, E. coli BL21
Settings: lysed cell extract; for enzyme activity: protein expressed in E. coli, pathway specific substrate, HPLC; for Enzyme activity in terms of product formation (in %): recombinant E. coli BL21 clone
Experimental: As per one of the possible implementations of the present disclosure, two proteins—cinnamate-4-hydroxylate (C4H) and 4-coumaroyl CoA-ligase (4CL) were expressed as one fusion protein. Also, other two proteins which were expressed as one fusion protein were hydroxycinnamoyl-CoA quinate hydroxycinnamoyltransferase (HCT) and p-coumaroyl quinate 3′-hydroxylase (HCTC3H). The fusion gene and the corresponding fusion protein was prepared using the following method. […] The enzyme fusion constructs were made for the selected genes (Table 5). Pathway genes and the fusion constructs were individually cloned in E. coli expression vector pET28+ under T7 promoter and transformed in E. coli BL21 cells. Recombinant bacterial cells were induced with IPTG and enzyme functionality was tested with pathway specific substrates (Table 5) using lysed E. coli cell extracts. HPLC analysis was carried out to quantify the product formation and in turn shortlisting of efficient enzymes for functional pathway assembly towards Etoposide in E. coli.
The E. coli transformants were grown overnight at 37° C. in 1 ml of M9 minimal media containing ampicillin (100 mg/1), in 96-well format. The next day, 150 μl of each culture was inoculated into 3 ml M9 minimal media containing ampicillin (100 mg/1), IPTG 0.1 mM in 24-well format, and incubated at 30° C. and 200 rpm for ˜20 hours. The following day, cells were spun down and pellets were resuspended in 100 μl of lysis buffer containing 10 mM Tris-HCl pH 8, 5 mM MgCl2, 1 mM CaCl2) and complete mini protease inhibitor EDTA-free (3 tablets/100 ml) (Hoffmann-La Roche, Basel, Switzerland) and frozen at −80° C. for at least 15 minutes to promote cell lysis. Pellets were thawed at room temperature and 50 μl of DNase mix (1 μl of 1.4 mg/ml DNase in H2O (˜80000 u/ml), 1.2 μl of MgCl2 500 mM and 47.8 μl of 4×PBS buffer solution) was added to each well. Plates were shaken at 500 rpm for 5 min at room temperature to allow degradation of genomic DNA. Plates were spun down at 4000 rpm for 30 min at 4° C. and six μl of the lysates were used in in vitro using appropriate substrates for enzymes as per Table 6. In each case, the resulting compounds were measured by HPLC. Results were analysed in comparison with the lysates expressing the corresponding controls (the empty plasmid). […]

| Molecule | enzyme activity [%] | also measured |
| --- | --- | --- |
| C4H4CL Azospirillum sp.: Cinnamate 4 hydroxylase 4 coumarate coenzyme ligase fusion (C4H4CL), Azospirillum sp. (protein, Depicts the nucleic acid sequence of Cinnamte 4 hydroxylase 4 coumarate coenzyme ligase fusion (C4H4CL) of Azospirillum sp.) MDLLLLEKTLLALFIAATIAITISKLRGKRFKLPPGPIPVPVFGNWLQVGDDLNHRNLTDLAKRFGDIFLLRMGQRNLVVVSSPELAKEVLHTQGVEFGSRTRNVVFDIFTGKGQDMVFTVYGTLAEMRRIMTVPFFTNKVVQQYRFGWEFEAQSVVDDVKKNPEACSSGIVLRRRLQLMMYNIMYRIMFDRRFESEEDPLFVKLKALNGERSRLAQSFEYNYGDFIPILRPFLKGYLKLCKEVKDRRLQLFKDYFVDERKKLGSTKSTTNEGLKCAIDHILDAQQKGEINDDNVLYIVENINVAAIETTLWSIEWGIAELVNHQKIQNKVREEIDRVLGPGHQVTEPDLQKLPYLQAVIKETLRLRMAIPLLVPHMNLHDAKLSGFDIPAESKILVNAWWLANNPAQWKKPEEFRPERFLEEESHVEANGNDFRYLPFGVGRRSCPGIILALPILGITLGRLVQNFELLPPPGQSKIDTAEKGGQFSLHILKHSTIVCKPRSFNGGGGSGGGGSGGGGSMTIQRWWRNRESLNRVLCDLLAGEFARLRPGGSPPAHPHRWPETLPLGPDGVGADSLDLLQLAAALNEALHLHRSGIEDYLLMHRTVGDWLDVCEAALGRFDGALSFRTSGSTGEGKRCEHPLAALEEEADALAALLSGGAEAPRRVVSVVPAHHIYGFLFTVLLPDRLAVPVVDGRGTSPGGLAARLGPGDLVVAHPDWWGALLRSGAALPDGVTGTSSTAPCPPDTARGVRGVGLARLVEVFGSSETAGLGWRESPDAPFRPFPWWRFGDDGRVTRRLADGTVLSATLQDRLSHDEEGFRPSGRLDTVVQVGGVNVSLAGVQAHLAGHPDVEAAAVRLMRPEEGTRLKAFIVPARTAPPREELYRRLTDWIEATLPAPHRPRALAFGPALPVNGMGKPCDWPLATCR | 97 |  |
| HCTC3H Coffea canephora: hydroxycinnamoyl-CoA:quinate hydroxycinnamoyltransferase p-coumaroyl quinate 3′-hydroxylase fusion (HCTC3H), Coffea canephora (protein, listed as Coffea canephora) MKIEVKESTMVRPAQETPGRNLWNSNVDLVVPNFHTPSVYFYRPTGSSNFFDAKVLKDALSRALVPFYPMAGRLKRDEDGRIEIECNGEGVLFVEAESDGVVDDFGDFAPTLELRRLIPAVDYSQGISSYALLVLQVTYFKCGGVSLGVGMRHHAADGFSGLHFINSWSDMARGLDVTLPPFIDRTLLRARDPPQPQFQHIEYQPPPALKVSPQTAKSDSVPETAVSIFKLTREQISALKAKSKEDGNTISYSSYEMLAGHVWRCACKARGLEVDQGTKLYIATDGRARLRPSLPPGYFGNVIFTATPIAIAGDLEFKPVWYAASKIHDALARMDNDYLRSALDYLELQPDLKALVRGAHTFKCPNLGITSWVRLPIHDADFGWGRPIFMGPGGIAYEGLSFILPSPTNDGSMSVAISLQGEHMKLFQSFLYDIGGGGSGGGGSGGGGSMALLLILLPVAFIFLAYSLYERLRFKLPPGPRPKPVVGNIYDIKPVRFKCYAEWSKLYGPIFSVYFGSQLNTVVNTAELAKEVLKDNDQQLADRYRSRPSARMSRNGQDLIWADYGPHYVKVRKLCNLELFTPKRLEGLRPLREDEVTAMVDSIFKDCTKPENKGKSLLMRNYLGSVAFNNITRLTFGKRFMNSEGVVDEQGQEFKGIVSNGIRIGAKLSVADHIPWLRWMFVGENEDLDKHNARRDKLTRMIMEEHTLARQKSGNTKQHFVDALLTLQKQYELSDDTVIGLLWDMITAGMDTTTISVEWAMAELVKNPRVQQKAQEELDRVIGSDRIMTEADFAKLPYLQCVAKEALRLHPPTPLMLPHRANANVKIGGYDIPKGSIVHVNVWAIARDPAAWKNPLEFRPERFLEEDVDIKGHDYRLLPFGAGRRICPGAQLALNLVTSMLGHLLHHFTWSPPPGVRPEEIDLEESPGTVTYMRTPLQAVATPRLPAHLYNRVPVE | 89 |  |
| Glycosyltransferase (UGT) (SEQ ID NO: 42) Mates domestica (protein, listed as Malus domestica) MKKVELVFIPSPGAGHHLPTLQFVKRLIDRNDRISITILAIQSYFPTTLSSYTKSIAASEPRIRFIDVPQPQDRPPQEMYKSRAQIFSLYIESHVPSVKKIITNLVSSSANSSDSIRVAALVVDLFCVSMIDVAKELNIPSYLFLTSNAGYLAFMLHLPILHEKNQIAVEESDPDWSIPGIVHPVPPRVLPAALTDGRLSAYIKLASRFRETRGIIVNTFVELETHAITLFSNDDRVPPVYPVGPVIDLDDGQEHSNLDQAQRDKIIKWLDDQPQKSVVFLCFGSMGSFGAEQVKEIAVGLEQSGQRFLWSLRMPSPKGIVPSDCSNLEEVLPDGFLERTNGKKGLICGWAPQVEILAHSATGGFLSHCGWNSILESLWHGVPIATWPMYAEQQLNAFRMVRELGMALEMRLDYKAGSADVVGADEIEKAVVGVMEKDSEVRKKVEEMGKMARKAVKDGGSSFASVGRFIEDVIGQN |  | Enzyme activity in terms of product formation (in %) (substrate tested: Desmethylepipodophyllotoxin): 54% |
| CYP82D (SEQ ID NO: 40) Panax ginseng (protein, Panax ginseng) METFLAQLYSTTTIAALFVLLVLYYFSPWTRINKKNVAPEAGGGWPIIGHLHLLGGSKLPHLVFGSMADKYGPIFTVRLGVQRSLVVSSWEMVKDIFTTNDVIVSGRPKFLAAKHLSYNYAMFGFSPYGSFWLELRKITSLQLLSNRRLELLKHVRVSEMEISMRQLYKLWSEKKNGSGRVLMDMKKWFGELNLNVTFRMVAGKRYFGGGAASNDEEARRCRRVVREFFRLLGVVVVADSLPFLRWLDLGGYERAMKETAREMDSIVSVWLEEHRIKSDSSGDDANMEQDFMDVMLSAVKNVDLCGFDAHTVIKATCMVIISSGTDTTTVELTWALCLLLNNRHVLKKAQEELDNVVGKQRRVKESDLNNLIYLQAIVKETLRLYPAGQLGGQREFSDDCTVGGYHVPKRTRLVVNLWKLHRDPRIWSDPTEFRPERFLERHKEIDVKGQHFELIPFGAGRRVCPGITFGLQMFHLVLASLLHGFDISTPSDAPVDMAEGAGLTNAKITPLEILIAPRLSPSLYE |  | Enzyme activity in terms of product formation (in %) (substrate tested: Deoxypodophyllotoxin): 93% |
| PAL Ganoderma sinense: Phenylalanine ammonia-lyase (PAL) from Ganoderma sinense (protein, Ganoderma sinense) MPGYTLTKTQSTSTFEPSPVTLKKAAVSSPLHAEPELPKQSSAPTLLHKFVEAHRALNNYKQGQPIVVDGQTLSIPAVAAVARYNADVVLDDSSDIQTRVLKSRQVIVDKVSSQKSVYGVSTGFGGSADTRTSDPLTLGLALFQHQHCGVLPSDTDSVPVALPLLDPLTSTSMPESWVRGAILIRMNSLIRGHSGVRWELIERMSALLRENIVPLVPLRGSISASGDLSPLSYIAGLLIGNPSIRVFDGPSTFRGRRIVSSREALSAHHIEPISLGSKEHLGILNGTAFSASVGALAVHEAVHLSLLGQVCTAMCTEAMLGAKGSFAPFIHSVARPHPGQVEVAETVTDLLEGSHFAVTAEEEKHISADIGELRQDRYPLRTSAQFLGPQVEDVLSAFAAITIECNSTTDNPLIDGETGEVHHGGNFQAMSVTNAMEKTRLAMHHIGKLLFAQCTELLNPSMNRGLPPNLAATDPSHNYFAKGVDIHAAAYVGELGYLANPVSTHVQSAEMHNQAVNSLALISARATLNSLEVLSILTSSFLYVLCQALDLRAMQHEFELEVDGILRQQLALSFGRHLSAADLDALFSVLSRHVRRSLETTSTMDAALRMRTVAAATTTPFVDFCAKRNTSLDLDEIVAFRAGLSEGMVGSLVRLREEYLRGSKGPAPAAKYLGRSRAVYEFVRVTLGIRMHGSENLHDFKEGPGVEDPTIGQDIALIHEAIRDGKMQDVVVGIFA | 98 |  |
| UGT Cicer arietinum: Glycosyltransferase (UGT) from Cicer arietinum (protein, listed as Cicer arietinum) MKKIEVVFIPSPGVGHLISTLEFANLLINRNNRLNITVLVINFPKTVEKQTNYSLTESENLHVINLPQTTTHVPSTSDVGNSISALVETQKSNVKQAVSNLTGTLAAFVVDMFCTTMIDVANELGVPSLVFFTSGVAFLGLMLHLHTIWEQQDTELLLQQDELDIPSFANPVATNTLPTLVLRKEWESSFIKYGNGLKKASGIIVNSFHELEPHAVRSFLEDPTLRDLPIYPVGPILNPKSNVDSDDVIKWLDDQPPSSVVFLCFGSMGTFDEEQVREIALAIERSGVRFLWSLRKPQPQGTMVPPSDYTLSQMLEVLPEGFLDRTANIGRVIGWAPQVQVLAHQATGGFVSHCGWNSTLESIYYGVPIATWPLFAEQQTNAFELVRELKIAVEIALDYRLEFDIGRNYLLDADKIERGIRGVLDKDGEVRKKVKEMSQKSRNVLLEGGSSYTYLGQLIDYITNQV | 97 |  |
